Assay results from publication PMC10066210, “The structural basis of the pH-homeostasis mediated by the Cl^−/HCO3^− exchanger, AE2” (Nature Communications, 2023).

Molecular target: the molecule itself
Assay: cryo-EM structure; hAE2 in GDN, about 10 mg/mL; samples in KNO3 pH 7.25 to 6.55, Tris-HCl pH 8.32, NaCl, 50 mM NaHCO3, or DIDS with NaHCO3; C2 symmetry (one class C1)

B1: human anion exchanger 2 (AE2), residues 177-1241 (natural protein, UniProt P04920 177-1241, looked up)
chain: LPHQEATPRASKGAQAGTQVEEAEAEAVAVASGTAGGDDGGASGRPLPKAQPGHRSYNLQERRRIGSMTGAEQALLPRVPTDEIEAQTLATADLDLMKSHRFEDVPGVRRHLVRKNAKGSTQSGREGREPGPTPRARPRAPHKPHEVFVELNELLLDKNQEPQWRETARWIKFEEDVEEETERWGKPHVASLSFRSLLELRRTLAHGAVLLDLDQQTLPGVAHQVVEQMVISDQIKAEDRANVLRALLLKHSHPSDEKDFSFPRNISAGSLGSLLGHHHGQGAESDPHVTEPLMGGVPETRLEVERERELPPPAPPAGITRSKSKHELKLLEKIPENAEATVVLVGCVEFLSRPTMAFVRLREAVELDAVLEVPVPVRFLFLLLGPSSANMDYHEIGRSISTLMSDKQFHEAAYLADEREDLLTAINAFLDCSVVLPPSEVQGEELLRSVAHFQRQMLKKREEQGRLLPTGAGLEPKSAQDKALLQMVEAAGAAEDDPLRRTGRPFGGLIRDVRRRYPHYLSDFRDALDPQCLAAVIFIYFAALSPAITFGGLLGEKTQDLIGVSELIMSTALQGVVFCLLGAQPLLVIGFSGPLLVFEEAFFSFCSSNHLEYLVGRVWIGFWLVFLALLMVALEGSFLVRFVSRFTQEIFAFLISLIFIYETFYKLVKIFQEHPLHGCSASNSSEVDGGENMTWAGARPTLGPGNRSLAGQSGQGKPRGQPNTALLSLVLMAGTFFIAFFLRKFKNSRFFPGRIRRVIGDFGVPIAILIMVLVDYSIEDTYTQKLSVPSGFSVTAPEKRGWVINPLGEKSPFPVWMMVASLLPAILVFILIFMETQITTLIISKKERMLQKGSGFHLDLLLIVAMGGICALFGLPWLAAATVRSVTHANALTVMSKAVAPGDKPKIQEVKEQRVTGLLVALLVGLSIVIGDLLRQIPLAVLFGIFLYMGVTSLNGIQFYERLHLLLMPPKHHPDVTYVKKVRTLRMHLFTALQLLCLALLWAVMSTAASLAFPFILILTVPLRMVVLTRIFTDREMKCLDANEAEPVFDEREGVDEYNEMPMPV
notes: Anion exchanger 2 (AE2, SLC4A2), human; A TEV protease site lies between the N-terminal Flag-8xHis tags and AE2; Solubilised in LMNG/CHS/GDN and kept in GDN; Residues 1-319, 433-498, 643-672 and 856-893 are not modelled in the structures; also called hAE2; AE2^177-1241; source: Expi293 cells, transiently transfected, purified (anti-Flag beads, SEC in GDN)
stoichiometry N: 2
